# Laboratory results from US20090285798A1 (COMMISSARIAT A L ENERGIE ATOMIQUE, published 2009).
# Legend:
# gp120SF162 [1] = target: T1, gp120SF162 (HIV-1, UniProt P19550 32-502); test: fluorescence polarization competition: 6 nM gp120SF162, 1 nM fluorescein-CD4M33
# T1 construct: domain: gp120
# Text: (§1) Binding assays by fluorescence anisotropy were made in a LJL Analyst (LJL BIOSYSTEMS) microplate reader using 384-wells plates.
# [2] = target: HIV-1 isolate 77 envelope (HIV-1); test: cell-based or functional assay
# NL4.3 env = NL4.3 env (HIV-1 groupM); test: cell-based or functional assay
# gp120 Bal [3] = target: T2, gp120 Bal (HIV-1); test: fluorescence anisotropy, Alexa-488-labelled mini-protein (0.5 nM) titrated with gp120 in solution
# T2 construct: domain: gp120
# Experimental: as §1
# (§2) Direct binding assays of fluorescent peptides were performed in triplicates by adding 10 μL of 0.5 nM Alexa-labeled mini-proteins and 10 μL of serial dilutions (two-thirds dilutions in 16 wells, starting at 200 nM) of gp120 SF2, SF162, BaL, IIIB and YU2. Collected data were fitted to the following equation using a non-linear regression program (Prism, GraphPad software Inc.):
# gp120 IIIB [4] = target: T3, gp120 IIIB (HIV-1); test: as above
# T3 construct: domain: gp120
# Experimental: as §1, §2
# gp120 Bal [5] = target: T2, gp120 Bal; test: fluorescence anisotropy, ratio of the Kd values of Table I (lower end falls on Bal)
# gp120SF162 [6] = target: T1, gp120SF162; test: fluorescence anisotropy, 0.5 nM CD4M47-F titrated with gp120
# gp120YU2 = target: T4, gp120YU2 (HIV-1, UniProt P35961 32-498); test: as above
# T4 construct: domain: gp120
# gp120 Bal [7] = target: T2, gp120 Bal; test: as above
# gp120 SF2 [8] = target: T5, gp120 SF2 (HIV-1, UniProt P03378 32-509); test: as above
# T5 construct: domain: gp120
# gp120 IIIB [9] = target: T3, gp120 IIIB; test: as above
# gp120SF162 [10] = target: T1, gp120SF162; test: fluorescence anisotropy, ratio of the Kd values of Table I (upper end falls on SF162)
# gp120 SF2 [11] = target: T5, gp120 SF2; test: fluorescence anisotropy, ratio of the Kd values of Table I (lower end falls on SF2)
# BaL virus envelope [12] = target: BaL virus envelope (HIV-1 groupM); test: cell-based or functional assay
# [13] = target: VI829 pseudovirus envelope (HIV-1); test: cell-based or functional assay
# Mn pseudovirus envelope = Mn pseudovirus envelope (HIV-1, UniProt P05877 32-856); test: cell-based or functional assay
# [14] = target: CA10-3 pseudovirus envelope (HIV-1); test: cell-based or functional assay
# [15] = target: SF162 pseudovirus envelope (HIV-1, UniProt P19550 32-847); test: cell-based or functional assay
# MJ4 pseudovirus envelope = MJ4 pseudovirus envelope (HIV-1); test: cell-based or functional assay
# BaL virus envelope [16] = target: BaL virus envelope (HIV-1 groupM); test: cell-based or functional assay; remark: listed apart in the source
# [17] = target: VI1358 pseudovirus envelope (HIV-1); test: cell-based or functional assay
# [18] = target: HIV-1 isolate 714 envelope (HIV-1); test: cell-based or functional assay
# [19] = target: HIV-1 isolate 6393 envelope (HIV-1); test: cell-based or functional assay
# gp120SF162 [20] = target: T1, gp120SF162; test: competitive ELISA, IC50 values of Table III (largest ratio falls on gp120SF162)
# Experimental: Competition binding assays in ELISA were performed in 96-wells plates (MAXISORB). Briefly, 50 ng per well of antibody D7324 (AALTO BIO REAGENTS) were coated overnight at 4° C.
Binder,IC50 (read off the curve) (gp120SF162 [1]) [nM],"IC50, acute HIV-1 infection of PM1 cells (p24, day 5) [2] [nM]","IC50, HIV-1 infection of PBMC (p24, day 12) (NL4.3 env) [nM]","EC50, single-cycle HIV-1 pseudovirus infection of GHOST cells (luciferase) [13] [nM]","EC50, single-cycle HIV-1 pseudovirus infection of GHOST cells (luciferase) (Mn pseudovirus envelope) [nM]","EC50, single-cycle HIV-1 pseudovirus infection of GHOST cells (luciferase) [14] [nM]","EC50, single-cycle HIV-1 pseudovirus infection of GHOST cells (luciferase) [15] [nM]","EC50, single-cycle HIV-1 pseudovirus infection of GHOST cells (luciferase) (MJ4 pseudovirus envelope) [nM]","EC50, single-cycle HIV-1 pseudovirus infection of GHOST cells (luciferase) (BaL virus envelope [16]) [nM]","EC50, single-cycle HIV-1 pseudovirus infection of GHOST cells (luciferase) [17] [nM]",further results
"XNLHFCQLRCKSLGLLGRCAXTFCACV (not fully specified; N-terminal thiopropionic acid (TPA) at position 1; (D)Pro at 21; C-terminal amide; Lys11 carries a mercapto group ligated to a maleimido group of a polylysine construct with 100 Å PEGylated linkers, tetramer of CD4M48-SH on a polylysine construct) [CD4M48T100]",~2,< 4,1.3,,,,,,,,
XNLHFCQLRCKSLGLLGKCAGSXCACV (not fully specified; biphenylalanine (Bip) at 23; Alexa-488 on Lys11) [Alexa labeled mini-protein CD4M33],,,,,,,,,,,Kd (gp120 Bal [3]): 6.36 nM; Kd (gp120 IIIB [4]): 3.81 nM
"XNLHFCQLRCKSLGLLGRCAXTXCACV (not fully specified; N-terminal thiopropionic acid (TPA) at position 1; (D)Pro at 21; biphenylalanine (Bip) at 23; C-terminal amide; Alexa-488 on Lys11, also called CD4M47-F; CD4M47-F1) [Alexa labeled mini-protein CD4M47]",,,,,,,,,,,fold improvement of affinity over CD4M33 (gp120 Bal [5]): 5.2 to 12.3 fold; Kd (gp120 Bal [3]): 1.22 nM; Kd (gp120 IIIB [4]): 0.589 nM; EC50 (read off the curve) (gp120SF162 [6]): ~0.3 nM; EC50 (read off the curve) (gp120YU2): ~3 nM; EC50 (read off the curve) (gp120 Bal [7]): ~1 nM; EC50 (read off the curve) (gp120 SF2 [8]): ~0.3 nM; EC50 (read off the curve) (gp120 IIIB [9]): ~0.9 nM; fold improvement of affinity over CD4M33 (gp120SF162 [10]): 5.2 to 12.3 fold
"XNLHFCQLRCKSLGLLGRCAXTFCACV (not fully specified; N-terminal thiopropionic acid (TPA) at position 1; (D)Pro at 21; C-terminal amide; Alexa-488 on Lys11, also called CD4M48-F1; Alexa 488-labeled CD4M48) [Alexa labeled mini-protein CD4M48]",,,,,,,,,,,Kd (gp120 Bal [3]): 5.46 nM; Kd (gp120 IIIB [4]): 0.982 nM; factor by which the Kd is smaller than that of CD4M33 (gp120SF162 [10]): 6.1 fold; factor by which the Kd is smaller than that of CD4M33 (gp120 SF2 [11]): 1.1 fold
XNLHFCQLRCKSLGLLGRCAXTFCACV (not fully specified; N-terminal thiopropionic acid (TPA) at position 1; (D)Pro at 21; C-terminal amide; Lys11 carries a hydrazino group ligated to heparin mono-aldehyde) [CD4M48-heparin],,< 4,< 80,,,,,,,,"IC50, acute HIV-1 infection of PM1 cells (p24, day 5) (BaL virus envelope [12]): 850 nM; IC50, HIV-1 infection of MT-4 cells (MTS viability, day 5) (NL4.3 env): 112 nM"
"XNLHFCQLRCKSLGLLGRCAXTFCACV (not fully specified; N-terminal thiopropionic acid (TPA) at position 1; (D)Pro at 21; C-terminal amide; Lys11 carries a mercapto group ligated to a maleimido group of a polylysine construct with 50 Å PEGylated linkers, tetramer of CD4M48-SH on a polylysine construct) [CD4M48T50]",~1,,,,,,,,,,
"XNLHFCQLRCKSLGLLGRCAXTFCACV (not fully specified; N-terminal thiopropionic acid (TPA) at position 1; (D)Pro at 21; C-terminal amide; Lys11 carries a mercapto group ligated to a maleimido group of a polylysine construct with 100 Å PEGylated linkers, dimer of CD4M48-SH on a polylysine construct) [CD4M48D100]",~2,3,< 1.8,,,,,,,,
"XNLHFCQLRCKSLGLLGRCAXTFCACV (not fully specified; N-terminal thiopropionic acid (TPA) at position 1; (D)Pro at 21; C-terminal amide; Lys11 carries a mercapto group ligated to a maleimido group of a polylysine construct with 50 Å PEGylated linkers, dimer of CD4M48-SH on a polylysine construct) [CD4M48D50]",~1,,,,,,,,,,
XNLHFCQLRCKSLGLLGRCAXTXCACV (not fully specified; N-terminal thiopropionic acid (TPA) at position 1; (D)Pro at 21; para-cyclo-hexylmethoxyphenylalanine (U1) at 23; C-terminal amide) [CD4M48_U1],,,,11,0.07,0.3,0.65,87,2,5,
"XNLHFCQLRCKSLGLLGRCAXTFCACV (not fully specified; N-terminal thiopropionic acid (TPA) at position 1; (D)Pro at 21; C-terminal amide, optimized mini-protein, Phe at 23; unlabelled monomer; also called B4T) [CD4M48]",~3,250,0.44,755,4,63,5,> 3300,77,57,"IC50, acute HIV-1 infection of PM1 cells (p24, day 5) [18]: 670 nM; IC50, acute HIV-1 infection of PM1 cells (p24, day 5) [19]: 95 nM; IC50, acute HIV-1 infection of PM1 cells (p24, day 5) (BaL virus envelope [12]): 185 nM; IC50, HIV-1 infection of MT-4 cells (MTS viability, day 5) (NL4.3 env): 2.6 nM"
XNLHFCQLRCKSLGLLGRCAXTXCACV (not fully specified; N-terminal thiopropionic acid (TPA) at position 1; (D)Pro at 21; para-cyclo-pentylethoxyphenylalanine (U2) at 23; C-terminal amide) [CD4M48_U2],,,,98,0.08,3.6,1.6,773,4,42,fold enhanced affinity compared to CD4M47 (gp120SF162 [20]): ≤ 3 fold
XNLHFCQLRCKSLGLLGRCAXTXCACV (not fully specified; N-terminal thiopropionic acid (TPA) at position 1; (D)Pro at 21; Phe(para-[phenyl-ethoxy]) (U3) at 23; C-terminal amide) [CD4M48_U3],,,,950,0.13,29,2,> 3270,67,364,
XNLHFCQLRCKSLGLLGRCAXTXCACV (not fully specified; N-terminal thiopropionic acid (TPA) at position 1; (D)Pro at 21; biphenylalanine (Bip) at 23; C-terminal amide) [CD4M47],,,,1200,1,91,22,> 3410,108,579,
